In publication PMC7736792:

Each sequence was assayed on p44 (in p44/p62 complex);p62 (in p44/p62 complex) (Chaetomium thermophilum;Chaetomium thermophilum) (assay: fluorescence anisotropy). Details: 20 mM HEPES pH 7.5, 30 mM KCl, 5 mM MgCl2, 1 mM TCEP, 5 nM DNA, room temperature.
Work on “TTTTTTTTTTTTTTTCCCGGCCATGCGAAGCATGGCCGGGTTTTT [open fork hairpin]” yielded a Kd of 210 nM.
“GACTACGTACTGTTACGGCTCCATCTCTACCGCAATCAGGCCAGATCTGC / GCAGATCTGGCCTGATTGCGGTAGCGATGGAGCCGTAACAGTACGTAGTC [undamaged dsDNA 50 bp]” showed a Kd of 1180 nM.
Sequence “GACTACGTACTGTTACGGCTCCATCTCTACCGCAATCAGGCCAGATCTGC [undamaged ssDNA 50 nt]” has a Kd of 840 nM.
